Columns and labels:
[1] = compound: O=P(O)(O)OC[C@H]1O[C@@H](O)[C@H](O)[C@@H]1O; assay: Competitive inhibition of Spinacia oleracea RPIA assessed as Km using D-ribose-5-phosphate as substrate by Michaelis-Menten kinetics analysis
[2] = compound: O=P(O)(O)OC[C@H]1O[C@@H](O)[C@H](O)[C@@H]1O; assay: Competitive inhibition of Spinacia oleracea RPIA assessed as Km using D-ribose-5-phosphate as substrate by ultraviolet absorbance based spectrophotometric analysis
[3] = compound: O=P(O)(O)OC[C@H]1O[C@@H](O)[C@H](O)[C@@H]1O; assay: Competitive inhibition of Spinacia oleracea RPIA assessed as Km using D-ribose-5-phosphate as substrate
[4] = compound: O=P(O)(O)OC[C@H]1O[C@@H](O)[C@H](O)[C@@H]1O; assay: Competitive inhibition of Mycobacterium tuberculosis H37Rv RPIB extracted from Escherichia coli BL21 assessed as Km using D-ribose-5-phosphate as substrate incubated for 10 mins by ultraviolet absorbance based spectrophotometric analysis
[5] = compound: O=P(O)(O)OC[C@H]1O[C@@H](O)[C@H](O)[C@@H]1O; assay: Competitive inhibition of Mycobacterium tuberculosis RPIB assessed as Km using D-ribose-5-phosphate as substrate
[6] = compound: O=P(O)(O)OC[C@H]1O[C@@H](O)[C@H](O)[C@@H]1O; assay: Competitive inhibition of Mycobacterium tuberculosis RPIB assessed as Km using D-ribose-5-phosphate as substrate by ultraviolet absorbance based spectrophotometric analysis
[7] = compound: O=P(O)(O)OC[C@H]1O[C@@H](O)[C@H](O)[C@@H]1O; assay: Competitive inhibition of Mycobacterium tuberculosis RPIB assessed as Km using D-ribose-5-phosphate as substrate by spectrophotometric analysis
[8] = compound: O=P(O)(O)OC[C@H]1O[C@@H](O)[C@H](O)[C@@H]1O; assay: Competitive inhibition of Escherichia coli RPIB assessed as Km using D-ribose-5-phosphate as substrate by spectrophotometric analysis
[9] = compound: O=P(O)(O)OC[C@H]1O[C@@H](O)[C@H](O)[C@@H]1O; assay: Competitive inhibition of Escherichia coli RPIB assessed as Km using D-ribose-5-phosphate as substrate by ultraviolet absorbance based spectrophotometric analysis
[10] = compound: O=P(O)(O)OC[C@H]1O[C@@H](O)[C@H](O)[C@@H]1O; assay: Competitive inhibition of Escherichia coli RPIB assessed as Km using D-ribose-5-phosphate as substrate

B1: ribose-5-phosphate isomerase (Spinacia oleracea), Q8RU73 (protein)
chain: MASAAFSLLPSTSSTTFNRHATTKLLNLKFLHNHRNKPFFTTTIKSLSSPSPTPVLTQDDLKKLAAEKAVDSVKSGMVLGLGTGSTAAFAVSRIGELLSAGKLTNIVGIPTSKRTAEQAASLGIPLSVLDDHPRIDLAIDGADEVDPDLNLVKGRGGALLREKMVEAASDKFIVVVDDTKLVDGLGGSRLAMPVEVVQFCWKYNLKRLQEIFKELGCEAKLRMEGDSSPYVTDNSNYIVDLYFPTSIKDAEAAGREISALEGVVEHGLFLGMASEVIIAGKTGVSVKTK
[1]
  Km: 7500 µM
[2]
  Km: 3300 µM
[3]
  Km: 3000 µM

B2: Ribose-5-phosphate isomerase B (Mycobacterium tuberculosis), P9WKD7 (protein)
chain: MSGMRVYLGADHAGYELKQRIIEHLKQTGHEPIDCGALRYDADDDYPAFCIAAATRTVADPGSLGIVLGGSGNGEQIAANKVPGARCALAWSVQTAALAREHNNAQLIGIGGRMHTVAEALAIVDAFVTTPWSKAQRHQRRIDILAEYERTHEAPPVPGAPA
[4]
  Km: 3700 µM
[5]
  Km: 2100 µM
[6]
  Km: 1000 µM
[7]
  Km: 3100 µM

B3: Ribose-5-phosphate isomerase B (Escherichia coli (strain K12)), P37351 (protein)
chain: MKKIAFGCDHVGFILKHEIVAHLVERGVEVIDKGTWSSERTDYPHYASQVALAVAGGEVDGGILICGTGVGISIAANKFAGIRAVVCSEPYSAQLSRQHNDTNVLAFGSRVVGLELAKMIVDAWLGAQYEGGRHQQRVEAITAIEQRRN
[8]
  Km: 1500 µM
[9]
  Km: 1100 µM
[10]
  Km: 1600 µM
